From paper PMC10688784, “In vitro characterization of the phage lysis protein MS2-L” (Microbiome Research Reports, 2023)
Where two headings read alike, the source gives them in different places.

Legend:
[1] = biological target: MS2-Lp35, MS2-L truncated of the first 34 amino acids, C-terminal StrepII-tag (MS2 phage); assay: native MS; LILBID-MS; derivatives CF expressed in standard A19 S30 lysate with 60 µM DMPG nanodiscs, purified; 50 mM ammonium acetate pH 7.4; laser 10-20 mJ
[2] = biological target: MS2-Lp35, MS2-L truncated of the first 34 amino acids, C-terminal StrepII-tag (MS2 phage); assay: native MS; LILBID-MS; derivatives CF expressed in standard A19 S30 lysate with 0.4% Brij78, purified; 50 mM ammonium acetate pH 7.4 with 0.02% Brij78; laser 10-20 mJ
[3] = biological target: MS2-Lp29, MS2-L truncated of the first 28 amino acids, C-terminal StrepII-tag (MS2 phage); assay: native MS; LILBID-MS; derivatives CF expressed in standard A19 S30 lysate with 60 µM DMPG nanodiscs, purified; 50 mM ammonium acetate pH 7.4; laser 10-20 mJ
[4] = biological target: MS2-Lp29, MS2-L truncated of the first 28 amino acids, C-terminal StrepII-tag (MS2 phage); assay: native MS; LILBID-MS; derivatives CF expressed in standard A19 S30 lysate with 0.4% Brij78, purified; 50 mM ammonium acetate pH 7.4 with 0.02% Brij78; laser 10-20 mJ
[5] = biological target: MS2-Lp23, MS2-L truncated of the first 22 amino acids, C-terminal StrepII-tag (MS2 phage); assay: native MS; LILBID-MS; derivatives CF expressed in standard A19 S30 lysate with 60 µM DMPG nanodiscs, purified; 50 mM ammonium acetate pH 7.4; laser 10-20 mJ
[6] = biological target: MS2-Lp23, MS2-L truncated of the first 22 amino acids, C-terminal StrepII-tag (MS2 phage); assay: native MS; LILBID-MS; derivatives CF expressed in standard A19 S30 lysate with 0.4% Brij78, purified; 50 mM ammonium acetate pH 7.4 with 0.02% Brij78; laser 10-20 mJ
[7] = biological target: MS2-Lp26, MS2-L truncated of the first 25 amino acids, C-terminal StrepII-tag (MS2 phage); assay: native MS; LILBID-MS; derivatives CF expressed in standard A19 S30 lysate with 60 µM DMPG nanodiscs, purified; 50 mM ammonium acetate pH 7.4; laser 10-20 mJ
[8] = biological target: MS2-Lp26, MS2-L truncated of the first 25 amino acids, C-terminal StrepII-tag (MS2 phage); assay: native MS; LILBID-MS; derivatives CF expressed in standard A19 S30 lysate with 0.4% Brij78, purified; 50 mM ammonium acetate pH 7.4 with 0.02% Brij78; laser 10-20 mJ
[9] = biological target: MS2-Lp32, MS2-L truncated of the first 31 amino acids, C-terminal StrepII-tag (MS2 phage); assay: native MS; LILBID-MS; derivatives CF expressed in standard A19 S30 lysate with 60 µM DMPG nanodiscs, purified; 50 mM ammonium acetate pH 7.4; laser 10-20 mJ
[10] = biological target: MS2-Lp32, MS2-L truncated of the first 31 amino acids, C-terminal StrepII-tag (MS2 phage); assay: native MS; LILBID-MS; derivatives CF expressed in standard A19 S30 lysate with 0.4% Brij78, purified; 50 mM ammonium acetate pH 7.4 with 0.02% Brij78; laser 10-20 mJ
[11] = biological target: T1, chaperone DnaJ with C-terminal His6-tag (UniProt P08622 1-376); assay: pull-down; settings: one partner purified
T1 construct: Chaperone DnaJ; the dnaJ gene cloned into NdeI/XhoI of pET21a; source: E. coli T7 Express, purified (Ni-NTA); not shown: His6, C-terminal, kept
T1 sequence (looked up): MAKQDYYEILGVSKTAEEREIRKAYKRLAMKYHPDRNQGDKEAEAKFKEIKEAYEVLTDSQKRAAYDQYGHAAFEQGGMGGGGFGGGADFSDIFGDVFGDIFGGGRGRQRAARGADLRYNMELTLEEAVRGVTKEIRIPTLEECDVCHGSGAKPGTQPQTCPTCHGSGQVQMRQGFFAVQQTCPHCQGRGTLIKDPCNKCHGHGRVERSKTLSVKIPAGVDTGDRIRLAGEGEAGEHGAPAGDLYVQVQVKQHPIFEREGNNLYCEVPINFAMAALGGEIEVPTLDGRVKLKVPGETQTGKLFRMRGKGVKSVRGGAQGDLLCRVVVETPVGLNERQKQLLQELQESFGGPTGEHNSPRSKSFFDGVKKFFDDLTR

[12] = biological target: MS2-L, full-length phage lysis protein with C-terminal StrepII-tag (MS2 phage) (UniProt P03609); assay: native MS; LILBID-MS; derivatives CF expressed in standard A19 S30 lysate with 60 µM DMPG nanodiscs, purified; 50 mM ammonium acetate pH 7.4; laser 10-20 mJ
[13] = biological target: MS2-L, full-length phage lysis protein with C-terminal StrepII-tag (MS2 phage) (UniProt P03609); assay: as above; remark: listed apart in the source

MS2-Lp35, MS2-L truncated of the first 34 amino acids, C-terminal StrepII-tag (domain or fragment)
stoichiometry N [1]: > 10 monomers
stoichiometry N [2]: < 10 monomers

MS2-Lp29, MS2-L truncated of the first 28 amino acids, C-terminal StrepII-tag (domain or fragment)
stoichiometry N [3]: > 10 monomers
stoichiometry N [4]: < 4 monomers

MS2-Lp23, MS2-L truncated of the first 22 amino acids, C-terminal StrepII-tag (domain or fragment)
stoichiometry N [5]: > 10 monomers
stoichiometry N [6]: < 4 monomers

MS2-Lp26, MS2-L truncated of the first 25 amino acids, C-terminal StrepII-tag (domain or fragment)
stoichiometry N [7]: > 10 monomers
stoichiometry N [8]: < 4 monomers

MS2-Lp32, MS2-L truncated of the first 31 amino acids, C-terminal StrepII-tag (domain or fragment)
stoichiometry N [9]: > 10 monomers
stoichiometry N [10]: < 4 monomers

B1: MS2-L, full-length phage lysis protein with C-terminal StrepII-tag (natural protein, MS2 phage, UniProt P03609 1-75, looked up)
chain: MKTRFPQQSQQTPASTNRRRPFKHEDYPCRRQQRSSTLYVLIFLAIFLSKFTNQLLLSLLEAVIRTVTTLQQLLT
notes: Lysis protein L of bacteriophage MS2, 75 amino acids; codon exchange GAA (Glu) to AAA (Lys) at the first position after the start methionine; In nanodisc samples the peptide sits in MSP1E3D1/DMPG nanodiscs; also called full-length MS2-L; full-length toxin MS2-L; source: also unpurified in the reaction mix; not shown: StrepII, C-terminal, kept
binding result [11]: binds
stoichiometry N [12]: > 10 monomers
stoichiometry N [13]: < 12 monomers
